Patent US20110064653A1 (IMMUNOMEDICS, published 2011)
Read-outs that look alike come from different tables or passages of the source. Values belong to the molecule of their own block, whether it stands above or below them.

Experiments:
[1] = molecular target: CEACAM6 (NCA-90) on cells (human) (UniProt P40199); assay: cell-based or functional assay
CEACAM5/CEACAM6 [2] = assay: cell-based or functional assay
[3] = molecular target: T1, carcinoembryonic antigen (CEA) (human, UniProt P06731 35-685); assay: radioiodinated MAb (100 ng/ml) with increasing CEA; free versus bound antibody by HPLC sizing gel
T1 construct: also called CEACAM5; CD66e
T1 sequence (looked up): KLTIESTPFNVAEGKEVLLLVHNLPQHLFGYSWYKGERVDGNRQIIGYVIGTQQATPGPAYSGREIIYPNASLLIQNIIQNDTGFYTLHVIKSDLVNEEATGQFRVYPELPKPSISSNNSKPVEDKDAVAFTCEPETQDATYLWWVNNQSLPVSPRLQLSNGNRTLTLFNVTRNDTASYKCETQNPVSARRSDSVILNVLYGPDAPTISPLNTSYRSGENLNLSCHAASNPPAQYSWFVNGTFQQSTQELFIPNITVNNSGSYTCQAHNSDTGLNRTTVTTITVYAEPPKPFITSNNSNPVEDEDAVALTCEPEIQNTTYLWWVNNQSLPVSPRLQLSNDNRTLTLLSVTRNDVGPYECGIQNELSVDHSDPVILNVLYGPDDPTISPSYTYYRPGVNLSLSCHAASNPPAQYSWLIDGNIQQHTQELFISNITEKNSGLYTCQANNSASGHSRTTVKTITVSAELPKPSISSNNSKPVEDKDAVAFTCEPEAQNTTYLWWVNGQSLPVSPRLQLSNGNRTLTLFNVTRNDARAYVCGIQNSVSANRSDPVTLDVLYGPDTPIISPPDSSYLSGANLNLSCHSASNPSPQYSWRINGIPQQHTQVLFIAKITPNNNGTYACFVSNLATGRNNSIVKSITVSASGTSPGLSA

[4] = molecular target: T1, carcinoembryonic antigen (CEA); assay: 125I-CEA radioimmunoassay
[5] = molecular target: T1, carcinoembryonic antigen (CEA); assay: competitive binding assay on CEA; unlabeled competitor varied against HRP-labeled murine MN-15
CEACAM5/CEACAM6 [6] = assay: cell-based or functional assay; remark: listed apart in the source
NCA-95 on HeLa cells = molecular target: T2, NCA-95 on HeLa cells (UniProt P31997 35-320, limits assumed); assay: indirect flow cytometry on HeLa-CGM6/1 transfectants
T2 construct: whole, on cells; also called HeLa-CGM6/1
T2 sequence (looked up): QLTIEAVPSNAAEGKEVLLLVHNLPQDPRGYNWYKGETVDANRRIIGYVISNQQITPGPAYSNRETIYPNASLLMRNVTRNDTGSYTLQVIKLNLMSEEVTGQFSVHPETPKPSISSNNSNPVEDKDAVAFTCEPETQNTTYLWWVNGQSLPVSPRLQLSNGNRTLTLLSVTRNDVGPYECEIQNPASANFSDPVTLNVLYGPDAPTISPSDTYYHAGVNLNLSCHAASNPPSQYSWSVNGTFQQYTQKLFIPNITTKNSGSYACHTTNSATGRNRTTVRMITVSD
Description: The reacitivty of antibodies was tested by flow cytometry with a Becton-Dickinson FACSCAN®. The biotinylated second antibody was directed against mouse IgG and was detected by a streptavidin/phycoerythrin conjugate. Tests were carried out with antibodies at 1/50 dilution of 1 mg/ml stocks.
The antibodies MN-3 and MN-15 were tested for recognition of HeLa cells transfected with cDNA coding for CEA (HeLa-CEA2), NCA-90 (HeLa-KNC6/S44) and NCA-95 (HeLa-CGM6/1). As a negative control, HeLa cells transfected with the plasmid pSV2-Neo (control HeLa cells, HeLa-NeoA) were used. In addition to the antibodies MN-3 and MN-15, three control antibodies were included: […]

- reduction of cell invasion, BXPC3, collagen-based invasion assay [1]: 0%
- reduction of cell invasion, CaPAN-1, collagen-based invasion assay [1]: 55%
- reduction of cell invasion, LS174T, collagen-based invasion assay [1]: 3%
- reduction of cell invasion, MCF-7, collagen-based invasion assay [1]: 47%
- reduction of cell invasion, ZR75-30, collagen-based invasion assay [1]: 59%
- adhesion-inhibition of MCF-7, HT-29, BT-20 and Moser cells to endothelial cells (CEACAM5/CEACAM6 [2]): 49 to 58%
Molecule: MN-3 Fab′

- CEA concentration for 50% complexation of the antibody [3]: 1 to 2 µg/mL
- percent of radioiodinated CEA bound [4]: < 50%
Molecule: NP-4 antibody

- IC50 (read off the curve) [5]: ~5 nM
B1: humanized MN-15 antibody (antibody, V domains shown)
VH: QVQLVESGGGVVQPGRSLRLSCSSSGFALTDYYMSWVRQAPGKGLEWLGFIANKANGHTTDYSPSVKGRFTISRDNSKNTLFLQMDSLRPEDTGVYFCARDMGIRWNFDVWGQGTPVTVSS
VL: DIQLTQSPSSLSASVGDRVTMTCSASSRVSYIHWYQQKPGKAPKRWIYGTSTLASGVPARFSGSGSGTDFTFTISSLQPEDIATYYCQQWSYNPPTFGQGTKVEIKR
notes: Humanized variable regions (REI VK and KOL VH frameworks) cloned alongside human IgG1 constant region genes; also called hMN-15

- adhesion-inhibition of MCF-7, HT-29, BT-20 and Moser cells to endothelial cells (CEACAM5/CEACAM6 [6]): 49 to 58%
B2: MN-15 Fab′ (Fab, V domains shown)
VL: DIQLTQSPAIMSASPGEKVTMTCSASSRVSYIHWYQQKSGTSPKRWIYGTSTLASGVPARFSGSGSGTSYSLTISSMEAEDAATYYCQQWSYNPPTFGAGTKLELKR
VH: EVRLVESGGGLVQGPGSLRLSCAASGFALTDYYMSWVRQSPGKTLEWLGFIANKANGHTTDYSPSVKGRFTISRDNSQTILYLQMNTLRTEDSATYYCARDMGIRWNFDVWGQGTTVTVSS

- IC50 (read off the curve) [5]: ~5 nM
B3: chimeric MN-15 antibody (antibody, V domains shown)
VH: EVRLVESGGGLVQGPGSLRLSCAASGFALTDYYMSWVRQSPGKTLEWLGFIANKANGHTTDYSPSVKGRFTISRDNSQTILYLQMNTLRTEDSATYYCARDMGIRWNFDVWGQGTTVTVSS
VL: DIQLTQSPAIMSASPGEKVTMTCSASSRVSYIHWYQQKSGTSPKRWIYGTSTLASGVPARFSGSGSGTSYSLTISSMEAEDAATYYCQQWSYNPPTFGAGTKLELKR

- IC50 (read off the curve) [5]: ~5 nM
- decrease of adhesion of CaPAN-1 cells to fibronectin (CEACAM5/CEACAM6 [6]): 47%
- decrease of adhesion of MCF-7 cells to fibronectin (CEACAM5/CEACAM6 [6]): 29%
- decrease of adhesion of MDA-468 cells to fibronectin (CEACAM5/CEACAM6 [6]): 51%
- binding result (NCA-95 on HeLa cells): binds
B4: murine MN-15 antibody (antibody, mouse IgG1, V domains shown)
VH: EVRLVESGGGLVQGPGSLRLSCAASGFALTDYYMSWVRQSPGKTLEWLGFIANKANGHTTDYSPSVKGRFTISRDNSQTILYLQMNTLRTEDSATYYCARDMGIRWNFDVWGQGTTVTVSS
VL: DIQLTQSPAIMSASPGEKVTMTCSASSRVSYIHWYQQKSGTSPKRWIYGTSTLASGVPARFSGSGSGTSYSLTISSMEAEDAATYYCQQWSYNPPTFGAGTKLELKR
notes: also called mMN-15; MN-15 IgG
